In US20100029568A1, “TIGHTER-BINDING C-PEPTIDE INHIBITORS OF HIV-1 ENTRY” (priority 2007, published 2010):

Columns and labels:
[1] = biological target: Res 2 (L33S) Env from HIV-1 strain HXB2 (HIV-1 strain HXB2), P04578; assay: cell-based or functional assay
[2] = biological target: Res 3 Env (N637K) from HIV-1 strain HXB2 (HIV-1 strain HXB2), P04578; assay: cell-based or functional assay
[3] = biological target: Res 4 (SDTV) Env from HIV-1 strain HXB2 (HIV-1 strain HXB2), P04578; assay: cell-based or functional assay
[4] = biological target: V549E mutant Env (Res1) from HIV-1 strain HXB2 (HIV-1 strain HXB2), P04578; assay: cell-based or functional assay
[5] = biological target: wild type Env (gp120/gp41) from HIV-1 strain HXB2 (HIV-1 strain HXB2), P04578; assay: cell-based or functional assay
N36 (HIV-1), P04578 [6] = assay: estimated Kd; method not stated
N36 (HIV-1), P04578 [7] = assay: estimated Kd; method not stated; reference is wild type C37 on N36

Q: With HTTWMEWDREINKYISLIHSLIEESQNQQEKNEQELL (modifications not checked) [C37-KYI] as the binder, how does the IC50, nM; inhibitory potency against pseudotyped HIV-1 [1] read?
A: 1 nM

Q: And the IC50, nM; inhibitory potency against pseudotyped HIV-1 [2]?
A: 4.1 nM

Q: What about the IC50, nM; inhibitory potency against pseudotyped HIV-1 [3] of the same binder?
A: 0.6 nM

Q: What about the IC50, nM; inhibitory potency against pseudotyped HIV-1 [4] of the same binder?
A: 4.2 nM

Q: What about the IC50, nM; inhibitory potency against pseudotyped HIV-1 [5] of the same binder?
A: 1 nM

Q: What about the Kd (N36 (HIV-1), P04578 [6]) of the same binder?
A: 0.04 pM

Q: What about the fold lower Kd than wild type C37 (N36 (HIV-1), P04578 [7]) of the same binder?
A: > 20 fold
